Measurements published in patent publication US20240067696A1 (ZEALAND PHARMA A S, published 2024).
Non-standard residues stand in square brackets, D forms with d. Dab = NCC[C@H](N)C(=O)O; Dap = NC[C@H](N)C(=O)O; Aib = CC(C)(N)C(=O)O

B1: Compound 38 (peptide)
peptide: H-HSHGTFTSDYSKYLD[Aib]ARAEEFVKWLEST-NH2
SMILES: CC(C)C[C@H](NC(=O)[C@H](Cc1c[nH]c2ccccc12)NC(=O)[C@H](CCCCN)NC(=O)[C@@H](NC(=O)[C@H](Cc1ccccc1)NC(=O)[C@H](CCC(=O)O)NC(=O)[C@H](CCC(=O)O)NC(=O)[C@H](C)NC(=O)[C@H](CCCNC(=N)N)NC(=O)[C@H](C)NC(=O)C(C)(C)NC(=O)[C@H](CC(=O)O)NC(=O)[C@H](CC(C)C)NC(=O)[C@H](Cc1ccc(O)cc1)NC(=O)[C@H](CCCCN)NC(=O)[C@H](CO)NC(=O)[C@H](Cc1ccc(O)cc1)NC(=O)[C@H](CC(=O)O)NC(=O)[C@H](CO)NC(=O)[C@@H](NC(=O)[C@H](Cc1ccccc1)NC(=O)[C@@H](NC(=O)CNC(=O)[C@H](Cc1c[nH]cn1)NC(=O)[C@H](CO)NC(=O)[C@@H](N)Cc1c[nH]cn1)[C@@H](C)O)[C@@H](C)O)C(C)C)C(=O)N[C@@H](CCC(=O)O)C(=O)N[C@@H](CO)C(=O)N[C@H](C(N)=O)[C@@H](C)O
B2: Compound 3 (peptide)
peptide: H-HSQGTFTSDYSKYLDKARAEDFVKWLEST-OH
B3: Compound 39 (peptide)
peptide: H-HS[Dab](Ac)GTFTSDYSKYLD[Aib]ARAEEFVKWLEST-OH
SMILES: CC(=O)NCC[C@H](NC(=O)[C@H](CO)NC(=O)[C@@H](N)Cc1c[nH]cn1)C(=O)NCC(=O)N[C@H](C(=O)N[C@@H](Cc1ccccc1)C(=O)N[C@H](C(=O)N[C@@H](CO)C(=O)N[C@@H](CC(=O)O)C(=O)N[C@@H](Cc1ccc(O)cc1)C(=O)N[C@@H](CO)C(=O)N[C@@H](CCCCN)C(=O)N[C@@H](Cc1ccc(O)cc1)C(=O)N[C@@H](CC(C)C)C(=O)N[C@@H](CC(=O)O)C(=O)NC(C)(C)C(=O)N[C@@H](C)C(=O)N[C@@H](CCCNC(=N)N)C(=O)N[C@@H](C)C(=O)N[C@@H](CCC(=O)O)C(=O)N[C@@H](CCC(=O)O)C(=O)N[C@@H](Cc1ccccc1)C(=O)N[C@H](C(=O)N[C@@H](CCCCN)C(=O)N[C@@H](Cc1c[nH]c2ccccc12)C(=O)N[C@@H](CC(C)C)C(=O)N[C@@H](CCC(=O)O)C(=O)N[C@@H](CO)C(=O)N[C@H](C(=O)O)[C@@H](C)O)C(C)C)[C@@H](C)O)[C@@H](C)O
B4: Compound 40 (peptide)
peptide: H-HS[Dab](Ac)GTFTSDYSKYLD[Aib]ARAEEFVKWLEST-NH2
SMILES: CC(=O)NCC[C@H](NC(=O)[C@H](CO)NC(=O)[C@@H](N)Cc1c[nH]cn1)C(=O)NCC(=O)N[C@H](C(=O)N[C@@H](Cc1ccccc1)C(=O)N[C@H](C(=O)N[C@@H](CO)C(=O)N[C@@H](CC(=O)O)C(=O)N[C@@H](Cc1ccc(O)cc1)C(=O)N[C@@H](CO)C(=O)N[C@@H](CCCCN)C(=O)N[C@@H](Cc1ccc(O)cc1)C(=O)N[C@@H](CC(C)C)C(=O)N[C@@H](CC(=O)O)C(=O)NC(C)(C)C(=O)N[C@@H](C)C(=O)N[C@@H](CCCNC(=N)N)C(=O)N[C@@H](C)C(=O)N[C@@H](CCC(=O)O)C(=O)N[C@@H](CCC(=O)O)C(=O)N[C@@H](Cc1ccccc1)C(=O)N[C@H](C(=O)N[C@@H](CCCCN)C(=O)N[C@@H](Cc1c[nH]c2ccccc12)C(=O)N[C@@H](CC(C)C)C(=O)N[C@@H](CCC(=O)O)C(=O)N[C@@H](CO)C(=O)N[C@H](C(N)=O)[C@@H](C)O)C(C)C)[C@@H](C)O)[C@@H](C)O
B5: Compound 41 (peptide)
peptide: H-HS[Dap](Ac)GTFTSDYSKYLD[Aib]ARAEEFVKWLEST-NH2
SMILES: CC(=O)NC[C@H](NC(=O)[C@H](CO)NC(=O)[C@@H](N)Cc1c[nH]cn1)C(=O)NCC(=O)N[C@H](C(=O)N[C@@H](Cc1ccccc1)C(=O)N[C@H](C(=O)N[C@@H](CO)C(=O)N[C@@H](CC(=O)O)C(=O)N[C@@H](Cc1ccc(O)cc1)C(=O)N[C@@H](CO)C(=O)N[C@@H](CCCCN)C(=O)N[C@@H](Cc1ccc(O)cc1)C(=O)N[C@@H](CC(C)C)C(=O)N[C@@H](CC(=O)O)C(=O)NC(C)(C)C(=O)N[C@@H](C)C(=O)N[C@@H](CCCNC(=N)N)C(=O)N[C@@H](C)C(=O)N[C@@H](CCC(=O)O)C(=O)N[C@@H](CCC(=O)O)C(=O)N[C@@H](Cc1ccccc1)C(=O)N[C@H](C(=O)N[C@@H](CCCCN)C(=O)N[C@@H](Cc1c[nH]c2ccccc12)C(=O)N[C@@H](CC(C)C)C(=O)N[C@@H](CCC(=O)O)C(=O)N[C@@H](CO)C(=O)N[C@H](C(N)=O)[C@@H](C)O)C(C)C)[C@@H](C)O)[C@@H](C)O
B6: Compound 4 (peptide)
peptide: H-HSQGTFTSDYSKYLDSARAEDFVAWLEST-OH
B7: Compound 5 (peptide)
peptide: H-HSQGTFTSDYSKYLDEARAKDFVEWLEKT-OH
B8: Compound 6 (peptide)
peptide: H-HSQGTFTSDYSKYLDSARAEDFVEWLEST-OH
B9: Compound 7 (peptide)
peptide: H-HSQGTFTSDYSRYLESARAEDFVKWLEST-OH
B10: Compound 8 (peptide)
peptide: H-HSQGTFTSDYSKYLESARAEDFVKWLEST-OH

What follows are binders tested against human glucagon receptor (human, UniProt P47871 26-477) (assay: cell-based or functional assay).
Chain of human glucagon receptor (P47871 26-477): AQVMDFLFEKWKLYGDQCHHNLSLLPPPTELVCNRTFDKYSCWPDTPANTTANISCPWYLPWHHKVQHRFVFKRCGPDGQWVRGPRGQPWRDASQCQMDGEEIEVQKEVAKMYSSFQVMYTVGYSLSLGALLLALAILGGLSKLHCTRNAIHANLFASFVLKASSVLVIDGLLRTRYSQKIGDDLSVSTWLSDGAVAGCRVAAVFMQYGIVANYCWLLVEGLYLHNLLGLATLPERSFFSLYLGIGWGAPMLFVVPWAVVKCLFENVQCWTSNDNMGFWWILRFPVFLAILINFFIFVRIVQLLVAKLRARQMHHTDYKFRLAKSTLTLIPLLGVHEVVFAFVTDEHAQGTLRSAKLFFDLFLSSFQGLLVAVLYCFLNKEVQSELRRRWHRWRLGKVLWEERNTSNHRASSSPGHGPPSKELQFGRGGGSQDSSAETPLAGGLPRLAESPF

Binder	GCG-R EC50 in vitro [nM] (cAMP, AlphaScreen, HEK293 cells expressing human Glucagon-R)
B1	0.0047
B2	0.03
B3	0.0044
B4	0.0035
B5	0.0038
B6	0.34
B7	0.17
B8	1
B9	0.93
B10	0.38
